B1: minF1; the commonest letter at each place (parent)
chain: GAGACCGCAACTGAAAAGTTGTTATCAGAAATGGATGGGTTGAATTTCTGCACGTAGAAGCAAAAGGC

Variants of: B1
Assay: fraction ligated after 30 min (ligated reads / total reads); higher = more ligase activity
Conditions: with F1*subA RNA substrate (template-directed ligation), 42 °C
Summary of the method: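 Oligo-pool templates of minimized ligase ribozyme variants were PCR-amplified, T7-transcribed and gel-purified. Ligated and unligated RNAs were gel-separated, reverse transcribed with barcoded primers, and MiSeq-sequenced; core bases were filtered at quality ≥30. Fraction ligated per variant was ligated reads over total reads.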
A27T A43C showed a fraction ligated of 0.336. For A27T A43G, the fraction ligated was 0.281. In the case of A27T A43T, the fraction ligated is reported as 0.412. For A27G G34T, the fraction ligated was 0.00742. A27G G34C gave a fraction ligated of 0.00194. A27G G34A gave a fraction ligated of 0.207. With A27T A35G the fraction ligated was 0.384. Variant A27T A35C has a fraction ligated of 0.406. A27T A35T showed a fraction ligated of 0.102. C26T A44T showed a fraction ligated of 0.246. C26T A44C showed a fraction ligated of 0.091. For C26T A44G, the fraction ligated was 0.142. Work on A27G A31G yielded a fraction ligated of 0.806. Variant A27G A31C has a fraction ligated of 0.802. Variant A27G A31T has a fraction ligated of 0.816. A27G A43C showed a fraction ligated of 0.132. Variant A27G A43G has a fraction ligated of 0.105. A27G A43T showed a fraction ligated of 0.169. A27T G42T was tested, and the fraction ligated was 0.444. A27T G42A was tested, and the fraction ligated was 0.698. A27T G42C was tested, and the fraction ligated was 0.0569. C26T G34T gave a fraction ligated of 0.0063. Work on C26T G34C yielded a fraction ligated of 0.00303. With C26T G34A the fraction ligated was 0.623. C26T showed a fraction ligated of 0.433. With A27C A44C the fraction ligated was 0.244. Variant A27C A44G has a fraction ligated of 0.38. In the case of A27C A44T, the fraction ligated is reported as 0.441. Work on A27C G28A yielded a fraction ligated of 0.503. A27C G28C gave a fraction ligated of 0.61. A27C G28T gave a fraction ligated of 0.628. With A27G G42C the fraction ligated was 0.0187. A27G G42T was tested, and the fraction ligated was 0.16. A27G G42A showed a fraction ligated of 0.361. A27C A31G was tested, and the fraction ligated was 0.687. A27C A31C was tested, and the fraction ligated was 0.421. A27C A31T was tested, and the fraction ligated was 0.455. Work on A27G A30C yielded a fraction ligated of 0.803. A27G A30G showed a fraction ligated of 0.824. Work on A27G A30T yielded a fraction ligated of 0.78. A27C A43C showed a fraction ligated of 0.0394. For A27C A43G, the fraction ligated was 0.0284. For A27C A43T, the fraction ligated was 0.0472. C26T A30G gave a fraction ligated of 0.5. For C26T A30C, the fraction ligated was 0.333. C26T A30T gave a fraction ligated of 0.339. Variant C26T G37C has a fraction ligated of 0.00325. With C26T G37T the fraction ligated was 0.00513. Variant C26T G37A has a fraction ligated of 0.00482. A27G G28C gave a fraction ligated of 0.793. In the case of A27G G28T, the fraction ligated is reported as 0.824. Work on A27G G28A yielded a fraction ligated of 0.797. With A27G A44T the fraction ligated was 0.774. For A27G A44C, the fraction ligated was 0.69. For A27G A44G, the fraction ligated was 0.746. A27C G37A gave a fraction ligated of 0.0106. Variant A27C G37C has a fraction ligated of 0.004. Variant A27C G37T has a fraction ligated of 0.0224. Variant A27G G37C has a fraction ligated of 0.00672. In the case of A27G G37T, the fraction ligated is reported as 0.0232. With A27G G37A the fraction ligated was 0.00716. With C26T A29T the fraction ligated was 0.43. Work on C26T A29C yielded a fraction ligated of 0.39. C26T A29G gave a fraction ligated of 0.417. With C26T A35G the fraction ligated was 0.0104. C26T A35T showed a fraction ligated of 0.0022. In the case of C26T A35C, the fraction ligated is reported as 0.00406. A27C G33A showed a fraction ligated of 0.835. Work on A27C G33C yielded a fraction ligated of 0.817. With A27C G33T the fraction ligated was 0.818. A27C T36A was tested, and the fraction ligated was 0.0988. A27C T36C showed a fraction ligated of 0.0483. A27C T36G showed a fraction ligated of 0.0955. A27T T36C gave a fraction ligated of 0.0659. Variant A27T T36A has a fraction ligated of 0.122. For A27C A29G, the fraction ligated was 0.61. For A27C A29C, the fraction ligated was 0.623. A27C A29T was tested, and the fraction ligated was 0.501. Variant C26T G33T has a fraction ligated of 0.206. C26T G33A gave a fraction ligated of 0.481. Work on C26T G33C yielded a fraction ligated of 0.325. With C26T T36A the fraction ligated was 0.0132. C26T T36G showed a fraction ligated of 0.0188. Variant C26T T36C has a fraction ligated of 0.00419. In the case of C26T A43G, the fraction ligated is reported as 0.0095. For C26T A43C, the fraction ligated was 0.00569. In the case of C26T A43T, the fraction ligated is reported as 0.0127. With C26G T32C the fraction ligated was 0.00208. For C26G T32G, the fraction ligated was 0.00509. Variant C26T G42C has a fraction ligated of 0.00245. With C26T G42A the fraction ligated was 0.0165. With C26T G42T the fraction ligated was 0.00392. A27G T32G gave a fraction ligated of 0.0179. In the case of A27G T32A, the fraction ligated is reported as 0.0468. In the case of A27G T32C, the fraction ligated is reported as 0.0134. For C26T T32C, the fraction ligated was 0.00511. Work on C26T T32G yielded a fraction ligated of 0.00682. In the case of C26T T32A, the fraction ligated is reported as 0.00354. For A27T A30T, the fraction ligated was 0.834. Work on A27T A30C yielded a fraction ligated of 0.822. A27T A30G was tested, and the fraction ligated was 0.851. A27C G42A gave a fraction ligated of 0.171. A27C G42C was tested, and the fraction ligated was 0.0124. A27C G42T was tested, and the fraction ligated was 0.0494. With A27G the fraction ligated was 0.803. A27C gave a fraction ligated of 0.694. A27T showed a fraction ligated of 0.824. With A27T A29G the fraction ligated was 0.829. Work on A27T A29T yielded a fraction ligated of 0.832. A27T A29C was tested, and the fraction ligated was 0.808. Work on A27G T36C yielded a fraction ligated of 0.0221. A27G T36G gave a fraction ligated of 0.0614. Variant A27G T36A has a fraction ligated of 0.0472. Work on A27C G34T yielded a fraction ligated of 0.0114. Work on A27C G34C yielded a fraction ligated of 0.00877. In the case of A27C G34A, the fraction ligated is reported as 0.15. In the case of C26T A27G, the fraction ligated is reported as 0.544. C26T A27T was tested, and the fraction ligated was 0.816. For C26T A27C, the fraction ligated was 0.79. A27T G33A was tested, and the fraction ligated was 0.829. A27T G33C gave a fraction ligated of 0.822. A27T G33T gave a fraction ligated of 0.737. For A27C A35T, the fraction ligated was 0.176. In the case of A27C A35G, the fraction ligated is reported as 0.112. Variant A27C A35C has a fraction ligated of 0.481. C26T G28C gave a fraction ligated of 0.61. C26T G28T was tested, and the fraction ligated was 0.55. For C26T G28A, the fraction ligated was 0.362. With C26G T36C the fraction ligated was 0.00195. In the case of C26G T36A, the fraction ligated is reported as 0.00192. In the case of C26G T36G, the fraction ligated is reported as 0.00843. For A27T G37T, the fraction ligated was 0.0547. In the case of A27T G37C, the fraction ligated is reported as 0.00946. Work on A27T G37A yielded a fraction ligated of 0.0217. Work on A27T A44G yielded a fraction ligated of 0.825. With A27T A44T the fraction ligated was 0.827. In the case of A27T A44C, the fraction ligated is reported as 0.766. A27T A31C gave a fraction ligated of 0.844. A27T A31T was tested, and the fraction ligated was 0.802. A27T A31G gave a fraction ligated of 0.837. For A27G A35G, the fraction ligated was 0.332. Work on A27G A35T yielded a fraction ligated of 0.0618. With A27G A35C the fraction ligated was 0.0489. A27G A29G was tested, and the fraction ligated was 0.797. A27G A29T showed a fraction ligated of 0.808. For A27G A29C, the fraction ligated was 0.809. C26T A31G showed a fraction ligated of 0.52. C26T A31C gave a fraction ligated of 0.312. C26T A31T gave a fraction ligated of 0.404. With A27T T32C the fraction ligated was 0.0794. A27T T32A was tested, and the fraction ligated was 0.0711. A27T T32G gave a fraction ligated of 0.0604. With A27T G28C the fraction ligated was 0.765. A27T G28A was tested, and the fraction ligated was 0.825. For A27T G28T, the fraction ligated was 0.833. A27T G34C showed a fraction ligated of 0.00507. In the case of A27T G34A, the fraction ligated is reported as 0.285. With A27T G34T the fraction ligated was 0.00294. A27G G33A gave a fraction ligated of 0.814. For A27G G33C, the fraction ligated was 0.35. A27G G33T gave a fraction ligated of 0.807. With A27C T32C the fraction ligated was 0.0159. With A27C T32G the fraction ligated was 0.0136. With A27C T32A the fraction ligated was 0.0275. With A27C A30G the fraction ligated was 0.759. In the case of A27C A30T, the fraction ligated is reported as 0.403. For A27C A30C, the fraction ligated was 0.465.
